Laboratory results reported in patent publication CN115125236A (YEASEN BIOLOGICAL TECH SHANGHAI CO LTD, dated 2022).

T1: Benzonase (粘质沙雷氏菌 (Serratia marcescens), UniProt P13717 22-266)
T1 construct: Coated on the plate in the ELISA and used as the sample in the sandwich ELISA; also called 全能核酸酶; Benzonase蛋白
T1 sequence (looked up): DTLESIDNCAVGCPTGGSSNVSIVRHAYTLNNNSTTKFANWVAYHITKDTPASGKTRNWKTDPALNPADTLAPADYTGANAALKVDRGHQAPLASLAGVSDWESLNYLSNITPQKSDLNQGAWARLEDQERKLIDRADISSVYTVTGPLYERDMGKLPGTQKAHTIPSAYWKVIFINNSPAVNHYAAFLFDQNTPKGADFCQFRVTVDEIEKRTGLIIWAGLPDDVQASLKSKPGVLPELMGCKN

B1: Benzonase单克隆抗体scFv5 (scFv)
scFv: QLMESGGGLVTPGGTLTLTCTASGFSLSNYWMSWVRQAPGKGLEWIGIISNYGSTYYASWAKGRFTISKTSTTVDLRITSPTIEDTATYFCAREFAGVFNLWGPGTLVTVSSGGGGSGGGGSGGGGSDMTQTPASVSEPVGGTVTINCQASQSVYNNKNLAWYQQKPGQPPKVLIYKASTLASGVSSRFKGSGSGTEFTLTISDLECADAATYYCQQGHDTNVQNLFGGGTEVVVKAAAGA
B2: Benzonase单克隆抗体scFv6 (scFv)
scFv: QLVESGGDLVKPGASLTLTCTASGFTLSSYWMCWVRQAPGKGLEWIGCIDTGSSDSTYYANWAKGRFTISKASSTTVTLQMTSVTPADTATYFCARHLRYSTNNNDWDLWGPGTLVTVSSGGGGSGGGGSGGGGSDLTQTPASVEAAVGDTVTIKCQASQSIYNYLAWYQQKPGQPPKVLIYAASNLASGVPSRFSGSGSGTQFTLTISGVQCDDAATYYCAGAYSTYGDNGFGGGTEVVVKA
B3: Benzonase单克隆抗体scFv1 (scFv)
scFv: QLVESGGGLVTPGTPLTLTCTASGFSLSSYWMSWVRQAPGKGLEWIGVISSSGSTDYASWAKGRFTISKTSTTVDLKITSLTTEDTAIYFCARYSSDWNAYDLWGQGTLVTISSGGGGSGGGGSGGGGSVLTQTPSPVSAAVGGTVTISCQASQSVYGNNYLSWFQQKPGQPPKLLIYQASTLASGVPSRFSGSGSGTQFSLTISGVQCDDAATYYCAGWSGSGTDAVAFGGGTELEILGRSGP
B4: Benzonase单克隆抗体scFv4 (scFv)
scFv: QLMESGGGLVQPGASLTLTCTASGFSFSSNYWICWVRQAPGKGLEWIGCIYTGTSGTTYYASWAKGRFTISETSSTTVTLQMTSLTAADTATYFCSKNTYGYALAARLDLWGQGTLVTISSGGGGSGGGGSGGGGSDMTQTPASVEVAVGGTVTIKCQASQSIGSDLAWYQQKLGQPPKLLIYYASTLESGAPARFSGSGSGTEYTLTITDVQCDDAATYYCAGDYSSGNDNGFGGGTEVVVKA
B5: Benzonase单克隆抗体scFv3 (scFv)
scFv: QLVESGGRLVTPGTPLTLTCTASGFALSGYYMTWVRQAPGKGLEWIGITHPSGSTYYASWVKGRFTISKASTTVDLRITSPTTEDTATYFCARVWTHYSSGGGDLWGPGTLVTISSGGGGSGGGGSGGGGSDLTQTPSSVSAAVGGTVTINCQSSESVYKNNDLSWYQQKPGQPPKLLISAASTLASGVPSRFKGSGSGTQFTLTISGVQCDDAATYYCQQGYSGDNVVNTFGGGTEVVVK

What was measured:
牛血清白蛋白 = molecular target: T2, 牛血清白蛋白 (牛 (bovine, by its name), UniProt P02769 25-607); assay: ELISA, BSA coated and blocked as control, HRP anti-flag-tag detection
T2 construct: also called BSA

Benzonase [1] = molecular target: T1, Benzonase; assay: ELISA, Benzonase coated, scFv from 1 μg/ml in twofold dilutions, HRP anti-flag-tag detection
Benzonase [2] = molecular target: T1, Benzonase; assay: sandwich ELISA, biotin-scFv4 as detection on Benzonase captured by scFv3, HRP-streptavidin

T2 sequence (P02769 25-607 limits assumed): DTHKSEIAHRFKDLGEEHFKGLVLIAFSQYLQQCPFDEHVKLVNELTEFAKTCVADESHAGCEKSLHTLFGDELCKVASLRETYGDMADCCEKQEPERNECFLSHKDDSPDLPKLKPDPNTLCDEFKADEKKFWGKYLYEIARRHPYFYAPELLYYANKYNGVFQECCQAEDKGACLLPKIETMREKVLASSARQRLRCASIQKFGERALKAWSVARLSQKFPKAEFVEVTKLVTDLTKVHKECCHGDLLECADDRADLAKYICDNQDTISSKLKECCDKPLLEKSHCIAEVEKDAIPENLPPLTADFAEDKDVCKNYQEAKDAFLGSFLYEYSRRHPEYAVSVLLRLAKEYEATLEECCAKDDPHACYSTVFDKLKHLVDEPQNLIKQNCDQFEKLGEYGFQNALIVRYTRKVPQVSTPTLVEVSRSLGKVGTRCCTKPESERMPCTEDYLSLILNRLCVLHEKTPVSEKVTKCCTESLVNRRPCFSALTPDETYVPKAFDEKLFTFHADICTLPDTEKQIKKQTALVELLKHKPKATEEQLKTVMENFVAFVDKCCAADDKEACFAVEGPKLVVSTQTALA

Binder | binding result (牛血清白蛋白) | binding result (Benzonase [1]) | binding result (Benzonase [2])
B1 | no binding (tested: 1μg/ml后二倍梯度稀释) | binds | –
B2 | no binding (tested: 1μg/ml后二倍梯度稀释) | binds | –
B3 | no binding (tested: 1μg/ml后二倍梯度稀释) | binds | –
B4 | no binding (tested: 1μg/ml后二倍梯度稀释) | – | binds
B5 | no binding (tested: 1μg/ml后二倍梯度稀释) | binds | –
